{"source": "patent US20100143950A1", "key": {"[1]": {"target": "C-reactive protein (CRP) (human) (UniProt P02741)", "sequence (P02741 19-224 limits assumed)": "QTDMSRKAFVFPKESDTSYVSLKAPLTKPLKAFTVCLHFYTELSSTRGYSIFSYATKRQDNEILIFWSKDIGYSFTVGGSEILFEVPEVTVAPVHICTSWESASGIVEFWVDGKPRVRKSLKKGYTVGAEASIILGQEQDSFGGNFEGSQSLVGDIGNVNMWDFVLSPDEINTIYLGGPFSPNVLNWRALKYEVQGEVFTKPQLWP", "experiment": "ELISA, purified CFH variant on plate-coated CRP"}, "[2]": {"target": "C-reactive protein (CRP) (human) (UniProt P02741)", "experiment": "ELISA, serum 1:1,000 on plate-coated CRP, detection with goat anti-human CFH"}}, "note": "Values joined by “and” are separate entries in the source; they are usually repeats but may differ in a detail not shown here. Equal entries are not always repeated."}
{"substance": "Complement Factor H 402Y variant (CFH402Y), from human serum of TT homozygotes (from UniProt P08603 19-1231)", "values": [{"measurement": "OD492", "setting": "[1]", "result": 0.763, "unit": "OD492"}, {"measurement": "OD492", "setting": "[2]", "result": "0.532 OD492 and 0.609 OD492"}]}
